Results: patent US20260226161A1

Experiments:
[1] = biological target: Human NKG2A & CD94 with mouse IgG2a Fc tag (AcroBiosystems) (human) (UniProt P26715); assay: SPR (Carterra), antibody on chip, soluble antigen
[2] = biological target: NKG2A expressed on KHYG-1 cells (endogenous) (human) (UniProt P26715)
[3] = biological target: cynomolgus NKG2A/CD94 (soluble antigen of the equilibrium assay) (cynomolgus) (UniProt Q68VD2); assay: SPR equilibrium response, Langmuir isotherm; antibody on chip, soluble antigen
[4] = biological target: NKG2A expressed on KHYG-1 cells (endogenous) (human) (UniProt P26715); assay: flow cytometry on KHYG-1 cells (endogenous NKG2A), MFI against Log [Ab] M
[5] = biological target: NKG2A expressed on KHYG-1 cells (endogenous) (human) (UniProt P26715); assay: competition by flow cytometry on KHYG-1 cells: antibody varied, binding of HLA-E tetramer to NKG2A read as MFI

Human NKG2A & CD94 with mouse IgG2a Fc tag (AcroBiosystems) (human), sequence (P26715 94-233 limits assumed, chain 1 of 2): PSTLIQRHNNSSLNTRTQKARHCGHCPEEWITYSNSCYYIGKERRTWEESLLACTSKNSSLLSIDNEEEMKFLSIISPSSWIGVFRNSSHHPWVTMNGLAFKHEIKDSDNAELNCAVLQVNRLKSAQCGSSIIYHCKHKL
Human NKG2A & CD94 with mouse IgG2a Fc tag (AcroBiosystems) (human), sequence (Q13241 32-179 limits assumed, chain 2 of 2, further chain): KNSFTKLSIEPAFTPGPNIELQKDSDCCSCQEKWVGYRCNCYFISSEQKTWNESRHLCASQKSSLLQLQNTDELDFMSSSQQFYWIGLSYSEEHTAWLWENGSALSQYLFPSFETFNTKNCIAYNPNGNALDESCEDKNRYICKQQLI
NKG2A expressed on KHYG-1 cells (endogenous) (human), sequence (P26715 whole entry, chain 1 of 2): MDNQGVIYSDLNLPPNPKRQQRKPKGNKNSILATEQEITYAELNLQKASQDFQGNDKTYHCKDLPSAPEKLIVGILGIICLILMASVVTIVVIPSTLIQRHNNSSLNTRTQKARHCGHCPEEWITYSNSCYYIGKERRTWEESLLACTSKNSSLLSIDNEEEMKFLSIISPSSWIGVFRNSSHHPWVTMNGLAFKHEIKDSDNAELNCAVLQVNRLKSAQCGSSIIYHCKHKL
NKG2A expressed on KHYG-1 cells (endogenous) (human), sequence (Q13241 whole entry, chain 2 of 2, further chain): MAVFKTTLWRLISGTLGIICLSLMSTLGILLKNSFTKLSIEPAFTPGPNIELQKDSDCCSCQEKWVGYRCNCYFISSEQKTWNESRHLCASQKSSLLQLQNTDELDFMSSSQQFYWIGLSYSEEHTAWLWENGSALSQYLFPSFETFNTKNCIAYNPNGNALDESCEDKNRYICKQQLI
cynomolgus NKG2A/CD94 (soluble antigen of the equilibrium assay) (cynomolgus), sequence (NKG2A, as listed by the source limits assumed, chain 1 of 2): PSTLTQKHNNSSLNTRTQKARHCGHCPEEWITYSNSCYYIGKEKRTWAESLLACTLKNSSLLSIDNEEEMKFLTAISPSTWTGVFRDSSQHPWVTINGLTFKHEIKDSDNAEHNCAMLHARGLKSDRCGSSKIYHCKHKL
cynomolgus NKG2A/CD94 (soluble antigen of the equilibrium assay) (cynomolgus), sequence (CD94, as listed by the source limits assumed, chain 2 of 2): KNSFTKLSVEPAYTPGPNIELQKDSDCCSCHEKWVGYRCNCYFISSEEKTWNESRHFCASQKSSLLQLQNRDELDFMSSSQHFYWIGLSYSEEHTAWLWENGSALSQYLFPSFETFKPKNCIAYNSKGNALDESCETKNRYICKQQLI

B1: Benchmark anti-NKG2A antibody (IgG4) (antibody, INN chains, looked up, V domains shown)
VH: QVQLVQSGAEVKKPGASVKVSCKASGYTFTSYWMNWVRQAPGQGLEWMGRIDPYDSETHYAQKLQGRVTMTTDTSTSTAYMELRSLRSDDTAVYYCARGGYDFDVGTLYWFFDVWGQGTTVTVSS
VL: DIQMTQSPSSLSASVGDRVTITCRASENIYSYLAWYQQKPGKAPKLLIYNAKTLAEGVPSRFSGSGSGTDFTLTISSLQPEDFATYYCQHHYGTPRTFGGGTKVEIK
modifications: IgG4
[1]
  Kd: 60 pM
  koff: 3e-05 s⁻¹
  kon: 510000 M⁻¹ s⁻¹
[2]
  % double-positive events (Q2: PD-L1+ LCL721.221-hPD-L1 cells coupled to NKG2A+ KHYG-1 cells), antibody at 2 nM; monospecific control, no bridging [cont.]: 0.59%
[3]
  Kd: 11000 pM
[4]
  EC50 (read off the curve): 40 pM
[5]
  IC50 (read off the curve): 300 pM
